± gives the half width of the 95% confidence interval.
What was measured:
[1] = folding stability dG unfold from trypsin proteolysis; higher = more stable
Method in brief: (§1)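 K50 was inferred by Bayesian fitting of sequencing counts obtained after protease digestion of designed mini-proteins. Unfolding free energy was derived by comparison with a sequence-predicted unfolded-state K50 and a shared folded-state K50, for each protease or both combined. The mini-proteins were under 80 residues, had no cysteine, were carried in a PA-tagged cDNA display construct, and were kept only if AlphaFold2 dimer inter-PAE exceeded 15.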

[2] = folding stability dG unfold (combined trypsin and chymotrypsin); higher = more stable
Method in brief: as §1

[3] = folding stability dG unfold from chymotrypsin proteolysis; higher = more stable
Method in brief: as §1

Row | Sequence | folding stability dG unfold [1] [kcal/mol] | folding stability dG unfold [2] [kcal/mol] | folding stability dG unfold [3] [kcal/mol]
1 | SAGGSAGGSAGGSKFLVKTSVEVFKNPVGGNRYGAKITTLAVNPDTNEVTLSESYLPLDLSAGGSAGGSAGG [r7_216_TrMRF] | 0.114 ± 0.11 | 0.62 ± 0.12 | 0.842 ± 0.13
2 | SAGGSAGGSAGGPSPSTPVTVTVTFPETGETVTLEVTDLEELRERFPDRPVEITVSPGGSAGGSAGGSAGGS [r10_1004_JUSTAS] | 2.5 ± 0.064 | 2.42 ± 0.06 | 2.11 ± 0.041
3 | SAGGMIVTTIPGSPAIKVEIPFPETPFSATITIPIAPDGTVTADLKPHPDMSEELIEKIKELAKELLKSAGG [r13_139_JUSTAS] | 1.03 ± 0.024 | 0.849 ± 0.092 | 0.829 ± 0.037
4 | SAGGSAGGSAGDVPPSETVTITVSSEAEKEAIKKEHPEVNLTFTEAEPPVAFDPTSDVTASAGGSAGGSAGG [r17_126_JUSTAS] | 0.842 ± 0.096 | 1.21 ± 0.17 | 1.27 ± 0.15
5 | SAGGPKPKTYDIMIPFDSEEEAEKLMENPEWAKEIAKEIAPLFPGYDIKVEVSWHPETGYFMVKITVSAGGS [r16_320_TrROS] | 3.21 ± 0.18 | 4.01 ± 0.13 | 4.12 ± 0.18
6 | SAGGSAGGSAGGKIYKKKNGTYKIIIYDKKTKKVYEIEIPVSKEDKPKILKEAKELAKKSAGGSAGGSAGGS [r10_379_TrROS_Hall] | 0.609 ± 0.11 | 1.17 ± 0.084 | 1.49 ± 0.096
7 | SAGGIKPDEPAIVLVKIPLPPGPNPEGGLEGPVLKTFPLEVGFPSLEELIEAVKELFPEGTEVEIIPSAGGS [r16_282_TrMRF] | 1.06 ± 0.042 | 0.455 ± 0.1 | -0.431 ± 0.13
8 | SAGGSAGGSAGGMTLEELKNLKPGEEVEIEIEVYDKNGKKVSKYRIRIYNDKIEIEKLPSAGGSAGGSAGGS [r10_394_TrROS_Hall] | 2.4 ± 0.057 | 2.71 ± 0.092 | 2.991 ± 0.026
9 | SAGGIKIMIPPGMPEEEARELARMIASMLPDNGHNIDDVKVRPVKPMPPPDGEPHRMYEFEIKLEPPSAGGS [r16_266_TrROS] | 1.01 ± 0.035 | 0.738 ± 0.11 | 0.35 ± 0.1
10 | SAGGSATLTLEAEFRLEDGTTVRVRVEVSPDGTVRIEVEVLPAPPPPPKVEVKEVFTTADGRKVLLSAGGSA [r2_78_TrROS_Hall] | 1.2 ± 0.035 | 1.57 ± 0.1 | 1.62 ± 0.063
11 | SAGGMKVTPNGKVVKKKPKVPVKKVTLTVKVKTAEEAKALADALRDLGYKVTVDEETGVVTVEVEIESAGGS [r16_765_TrROS_Hall] | 0.996 ± 0.079 | 1.28 ± 0.1 | 1.5 ± 0.058
12 | SAGGSAGGSPGKPYVEVEFTFIAFFPDGWLWVMTMKIEIPPDNNEIKPDIEMERIPLPPGQFLSAGGSAGGS [r12_811_TrROS] | 2.43 ± 0.05 | 2.7 ± 0.08 | 2.73 ± 0.066
13 | SAGGSAGGSAGGPKGYFRIRIEIPNGQKREIWFPPDDAEEWVKSLGIPEENVKITKIEPYSAGGSAGGSAGG [r7_211_TrROS] | 0.506 ± 0.15 | 0.868 ± 0.18 | 0.874 ± 0.27
14 | SAGGSPHVSTDAADPELAARLLREAFGTDEVPLVRRDPTTGALLAFLPATGRLVWTDRTTVRVEPSSAGGSA [r2_205_TrMRF] | 0.325 ± 0.13 | 0.13 ± 0.074 | -0.0869 ± 0.13
15 | SAMKVKVIVINPDGKPQEFEFEAEEGDPEKLVEEVEAEIKKLHPNSDIKFKAEVLEVKPDGEITILVSDSAG [r14_622_TrMRF] | 2.03 ± 0.19 | 2.52 ± 0.14 | 2.77 ± 0.05
16 | SAGGSAGGSAGKIWIYNPENGWIFEISIQPHPMPNDDGEPQWMFSIDVEVYPPGKPGQPISAGGSAGGSAGG [r11_531_TrROS] | 2.59 ± 0.079 | 3.59 ± 0.065 | 4.1 ± 0.066
17 | SAMKLSPELLKKLGLSKEDIKEIEIEVEPVPELSEEDLKKKNVTVYKVKIKIKVNGKEYEVELLFVEPKSAG [r14_483_TrROS_Hall] | 1.83 ± 0.07 | 2.18 ± 0.15 | 2.49 ± 0.18
18 | SAGGSAGGSAMTPETIKEKYPNVDYSPSPLGGKTVYTFTFPSGSTVTVTFNPGSATITTIAGSAGGSAGGSA [r18_13_JUSTAS] | 2.26 ± 0.13 | 2.96 ± 0.11 | 3.38 ± 0.07
19 | SAGDNNKKPKYVYIPITINVPLPPGQTHEEAVDEVRLIMEELFPPGFKISEVKVHPEYNTVTVWIQIRSAGG [r19_81_TrROS] | 2.11 ± 0.089 | 2.22 ± 0.18 | 2.16 ± 0.044
20 | SAGGSAGGSAGEKTIKIKVKDKNGKTKTITLKIKNAKFKPGQKIEIVKVNKNGSLEIKLKSAGGSAGGSAGG [r11_733_TrROS_Hall] | 0.678 ± 0.059 | 1.6 ± 0.24 | 1.82 ± 0.087
21 | SAGGFVTFKAPPVLIEAFKKAGLTPSEAKTLLLPVKFGDKEVVVEVTFYPETGEVKVKVLSFGTEFEAESAG [r5_545_TrMRF] | 2.22 ± 0.069 | 3.07 ± 0.13 | 3.38 ± 0.04

Row | Sequence | folding stability dG unfold [1] [kcal/mol] | folding stability dG unfold [2] [kcal/mol] | folding stability dG unfold [3] [kcal/mol]
22 | SAMTLTLEFENLKDLTEEEIEEALKEAGLPGVKILGIKKTSEKWTITIAYDSSTPKEKIEAAIKKAVAESAG [r14_657_JUSTAS] | 5.03 ± 0.35 | 4.56 ± 0.18 | 4.64 ± 0.13
23 | SAGGSAGGVERIKKLLEELGAEVVKVEKLENGKTLIYIKVKSEEQREALKALLPEEDIEIIEPESAGGSAGG [r6_83_TrROS_Hall] | 4.69 ± 0.58 | 4.43 ± 0.17 | 4.47 ± 0.17
24 | SAGGSAGGMTLTLELTLENGKKVRIEVEVNENGSLKVKITYPNGKKVEIEVNMSLEELLKKLLSSAGGSAGG [r6_808_TrROS_Hall] | 3.75 ± 0.26 | 3.91 ± 0.29 | 3.66 ± 0.14
25 | SAGGSAGGSAMTPEELLKAAEELAKKLNLKVEIEVKKNENGELTITVKVYKNGKLVKEFEIKSAGGSAGGSA [r18_369_TrROS_Hall] | 3.06 ± 0.089 | 4.82 ± 0.16 | 4.9 ± 0.11
26 | SAGGMKTLRLVVTVKVPKETGKPTVAEKLAEELAKLPGVEVVKVEVKRLENGTVVVTIEIKVPKELKPSAGG [r13_428_TrROS_Hall] | 3.13 ± 0.23 | 3.18 ± 0.13 | 3.36 ± 0.061
27 | SAGKTATFTFTLPLPENDLILRVTVRVEEVEDIGEKKVYRVNVEIDLIDKDGVPHRFSFSFLVPAEELFSAG [r14_916_TrMRF] | 3.39 ± 0.15 | 4.83 ± 0.16 | 5.14 ± 0.11
28 | SAGGSAGGSAGVIVTPEGDRIVTYDPNTGSVTVTPLDAAGNPLTTTVVAPNGPVVTVTELSAGGSAGGSAGG [r17_385_JUSTAS] | 1.66 ± 0.055 | 1.22 ± 0.034 | 0.871 ± 0.018
29 | SAGGMKLVVTKVGEDDNTEYYLITDPGSAEAIREAIKKLVPKDLPYKVTVLSYDPATGTYTVLVEVKRSAGG [r13_491_JUSTAS] | 2.91 ± 0.13 | 3.44 ± 0.11 | 3.67 ± 0.039
30 | SAGGSAGGAFTVTLPDGRPVRVRLLGATFTFEVRIPPGVPDVVPGAKPDEVVKVTRVVLVVSLDSAGGSAGG [r6_907_TrMRF] | 2.82 ± 0.13 | 4.16 ± 0.14 | 4.57 ± 0.096
31 | SAGGSAGGAPPDLKVTVKPTPGPGTGQRYTVVVELDEGGVLPFPFSFASPSEVEKAAKAIAALLSAGGSAGG [r6_996_TrMRF] | 1.02 ± 0.056 | 1.31 ± 0.14 | 1.57 ± 0.14
32 | SAGGLPEEVEKLAEILAKLPPVVPVPVTFPDGVEVVYFPPTGFVAVRFYERDENGEWVLVGETFFPVSAGGS [r16_243_TrMRF] | 2.44 ± 0.042 | 2.98 ± 0.05 | 3.235 ± 0.016
33 | SAGGSAGGSAMTFKSPEEAKKAAEELEKKTGYKIKITKIEVNEDGEKTVKIEILPPGEKLKSAGGSAGGSAG [r3_59_TrROS_Hall] | -0.238 ± 0.092 | 0.284 ± 0.1 | 0.544 ± 0.12
34 | SKKKKKKKKKKVIIKIKKDGKEIYIEMTVEEIKELLKKGVKKIEIYSPSEEEKEKIKKLLEEEGVEVEEVSA [r9_810_TrROS_Hall] | 2 ± 0.1 | 1.78 ± 0.18 | 1.71 ± 0.07
35 | SAMMKAEIVEIKFDPKTKKLTIKFPDGSKLEIKPGETIKIKIKVTVFNEETGKLEEKEITLTLKLPEGLSAG [r14_366_TrROS_Hall] | 2.31 ± 0.27 | 2.91 ± 0.43 | 2.96 ± 0.1
36 | SAGGSAGGSAMLIVGGADPEGAAEAAEEFIAAIEKAAEELGIPPEHIEIPVLIAEPGEAPGSAGGSAGGSAG [r3_249_TrMRF] | 1.19 ± 0.056 | 0.834 ± 0.12 | 0.289 ± 0.052
37 | PISAEEAVDYAKHLAERLLKENPPGQEEVEIEFQSPNGWTVKIEIDPNNRKIDVEVYPRNGEPIAKAKIKVS [r1_370_TrROS] | 0.108 ± 0.12 | 0.205 ± 0.35 | 0.378 ± 0.33
38 | SAGGSAGGSAGKIVIVVDEDGNYTLKVNGKTYVFKTPEEAKAAAEELKKAGIEIEIVEVPSAGGSAGGSAGG [r17_35_TrROS_Hall] | 3.6 ± 0.21 | 4.85 ± 0.17 | 4.96 ± 0.16
39 | SAGGSAGGNGPPDIKIKIEILEVHPGHRDPDGKYYFRVRVEIEYPNKPVKVDFPMPADDAKDLISAGGSAGG [r6_724_TrROS] | 2.93 ± 0.11 | 3.66 ± 0.15 | 4.2 ± 0.092
40 | SAGGSAGGSAAVILPEGTLYFTLPDGSRAAATVDPATGTVHIRLYSPDGVPLAEADIPIDPSAGGSAGGSAG [r3_447_TrMRF] | 0.947 ± 0.024 | 1.83 ± 0.07 | 2.26 ± 0.037
41 | SADRIKINVMTHQSPDGRPYYMVSIRIPGNGKEIMGPIDSPEDAEEQAKEIADKLEKEGIPIEVEIYPMSAG [r14_263_TrROS] | 2.13 ± 0.066 | 1.94 ± 0.17 | 1.82 ± 0.09
42 | SAGGMPVTVTIVVPPGTERELAEELAEKYAKEGADVEFEERPGGLVLTMTLPGGEVVTMEIRDPAQASAGGS [r16_406_JUSTAS] | 2.3 ± 0.056 | 2.34 ± 0.057 | 2.382 ± 0.023
